Assays:
[1] = test system: NapM (Mycobacterium tuberculosis H37Ra); assay: EMSA; conditions: pH and temperature not stated
[2] = test system: DnaA (Mycobacterium tuberculosis H37Ra); assay: EMSA; conditions: pH and temperature not stated

oriC fragment was tested, and the Kd [1] was 458 nM and the Kd [2] was 60.5 nM.
